Reference: the supplement of paper PMC10724198
± gives the standard deviation of the averaged measurements.

Test system: Saccharomyces cerevisiae
Experiment: protein stability index of tFT-peptide fusion (C-terminal peptide) (PSI (0-1 scale)); higher = more stable (slower turnover)
Details: genetic background: wild type; temperature: 30 C
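Note: PSI is a weighted mean of sequencing reads over stability bins, variants kept only with over 10 reads, mCherry proximal and sfGFP distal, peptide attached via GGGS linker.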

Sequence	protein stability index
SESKGAMCQRNA	0.6475 ± 0.0054
SETMFRLVADIT	0.715 ± 0.011
SFACVYVPPALF	0.712 ± 0.025
SFCHWRFSFPKC	0.666 ± 0.04
SFFGYPCFLLSI	0.54 ± 0.026
SFFRFRIPLFPS	0.669 ± 0.065
SFFSVQIQFGLS	0.617 ± 0.012
SFFVTVAGPFQI	0.686 ± 0.012
SFGIGFFATRGF	0.676 ± 0.031
SFGLRCPASRGS	0.648 ± 0.052
SFGPQFLAPVFS	0.706 ± 0.031
SFGSVFGGRWCV	0.672 ± 0.035
SFKSCMCLFCGV	0.659 ± 0.034
SFLAHSFLPLPP	0.631 ± 0.069
SFLLPTLVRLSH	0.65 ± 0.022
SFLPPLFPHPPP	0.841 ± 0.031
SFLRTRPHAPLP	0.6363 ± 0.0021
SFLSLYRLTPGR	0.655 ± 0.048
SFLVLRGSGGKW	0.713 ± 0.082
SFLVSALASSLA	0.652 ± 0.019
SFNHAKPPLHPA	0.683 ± 0.03
SFNVFKINSITV	0.562 ± 0.019
SFPHSFLFPLFP	0.751 ± 0.09
SFPLSPAFPSFL	0.744 ± 0.025
SFPPPLPPSPTP	0.697 ± 0.036
SFPRPTSALSLN	0.604 ± 0.075

Sequence	protein stability index
SFPRYRWRAATE	0.6704 ± 0.0021
SFPSLLRPPHFS	0.706 ± 0.041
SFPVPFPRFFPP	0.714 ± 0.03
SFRDRHRRLCDL	0.596 ± 0.035
SFRFFVSGFVVL	0.531 ± 0.009
SFRLRSLVFGFF	0.597 ± 0.067
SFRQSRLKRRGY	0.672 ± 0.15
SFSACGEPVPPG	0.661 ± 0.0077
SFSFPFFFWGLL	0.592 ± 0.0061
SFSIPTCSVPLT	0.687 ± 0.096
SFSPLRLPPSLL	0.724 ± 0.049
SGAGVGWGCSSV	0.635 ± 0.047
SGAGVNWGVGWG	0.714 ± 0.029
SGALSDVCVMLL	0.652 ± 0.026
SGAPAQLSLSSL	0.6568 ± 0.0032
SGCPGPNVPRVP	0.705 ± 0.014
SGDGGVGHWVGG	0.676 ± 0.025
SGEVMGAMVLHE	0.773 ± 0.12
SGFFGFLLGAYG	0.5876 ± 0.0031
SGFLLVLRRPRE	0.655 ± 0.05
SGGGGWVVGGVA	0.663 ± 0.011
SGGTDMLALRVR	0.632 ± 0.062
SGHRPPRVAVDS	0.66 ± 0.044
SGIWLKRVTMYR	0.7027 ± 0.0047
SGKGRRLVLGSS	0.6895 ± 0.0039
SGKVNNKEGKWK	0.686 ± 0.015

Sequence	protein stability index
SGLAARFGLPIR	0.674 ± 0.016
SGLPALPRPVWP	0.491 ± 0.076
SGLPVPFSALRS	0.718 ± 0.049
SGLRQGRHVYPA	0.682 ± 0.011
SGPAVLPTFVSP	0.65 ± 0.077
SGPGGVGPTGGI	0.6585 ± 0.0055
SGPLPCPPLPAP	0.676 ± 0.016
SGRIASQACLIW	0.671 ± 0.045
SGRRRAPPAPSP	0.732 ± 0.037
SGRSQERMYARW	0.656 ± 0.012
SGRVRPNSRASP	0.698 ± 0.073
SGSAPFLRTSKL	0.685 ± 0.061
SGSPVFLDPPLS	0.698 ± 0.015
SGTSDDWWPGVA	0.785 ± 0.038
SGVCGRVGGGLR	0.622 ± 0.047
SGVLASSCPSSC	0.659 ± 0.016
SGVVGLGCVPWF	0.857 ± 0.2
SGWSVGVMGESG	0.627 ± 0.092
SGYKVYNSVHIL	0.602 ± 0.026
SHASTPSSRVIP	0.716 ± 0.01
SHICSFLGICHA	0.576 ± 0.031
SHIPRNLSPFSS	0.754 ± 0.056
SHLAYVKWYIGD	0.6305 ± 0.0042
SHPAPGSPTSPS	0.67064 ± 0.00027
SHPPFPFAPPPR	0.674 ± 0.031
SHPPPPPHTPPS	0.736 ± 0.02

Sequence	protein stability index
SHRTRPSQTPTQ	0.643 ± 0.05
SHSPPSPPLPPP	0.6773 ± 0.0042
SHTIVPNPLKLV	0.576 ± 0.019
SHTSPSTPPPSP	0.681 ± 0.0085
SICLLSAALPPP	0.708 ± 0.029
SIFSFCSNTWFL	0.747 ± 0.029
SIGACGEVTFGC	0.7083 ± 0.00078
SIIGRKVNGVSN	0.711 ± 0.0089
SIIIPATCEYLV	0.603 ± 0.013
SIKGLVRSIALN	0.638 ± 0.0064
SILFMYPARNAP	0.7177 ± 0.0028
SILRLRSVVPAE	0.6457 ± 0.0027
SIPLIMPLSDYV	0.675 ± 0.015
SIVGGVVRVLCG	0.603 ± 0.048
SKGARQRQPPDG	0.5983 ± 0.0041
SKGFVIMRAACF	0.572 ± 0.018
SKGLPADSQQPF	0.729 ± 0.054
SKIKLYKIKKKK	0.7206 ± 0.0054
SKKARIYIKKRR	0.683 ± 0.053
SKKLRRNKYRNG	0.6871 ± 0.0039
SKKRKRNKKKGE	0.74 ± 0.098
SKQKSKNYEAFK	0.721 ± 0.039
SKRSYEEGNIVY	0.672 ± 0.028
SKRYREKIVRNK	0.677 ± 0.04
SKTEKELSNREF	0.659 ± 0.025
SLAFIRFPSPSP	0.668 ± 0.0083

Sequence	protein stability index
SLAFLPPSLSSS	0.713 ± 0.056
SLAPPVPPPPLH	0.67 ± 0.026
SLFNADPYGFNL	0.711 ± 0.03
SLFRVAFLYVQV	0.5406 ± 0.0018
SLGGGGGLAWWL	0.795 ± 0.26
SLGWGRVNVCGV	0.666 ± 0.0031
SLHSSQYTRHSG	0.673 ± 0.024
SLHVSSLPYALQ	0.662 ± 0.082
SLKHRSSLRQLI	0.519 ± 0.01
SLKIPSPLSPVL	0.699 ± 0.028
SLLCDQSSLGQC	0.747 ± 0.11
SLLELSPPRSPP	0.681 ± 0.03
SLLFLRFLFSTP	0.705 ± 0.0086
SLLLPLPLPVRL	0.582 ± 0.0086
SLLPCAPHPRPV	0.662 ± 0.074
SLPHHRPPHPRT	0.752 ± 0.17
SLPKSSLFAPHL	0.715 ± 0.023
SLPLPPPSPPHV	0.676 ± 0.018
SLPPSPPPPSLP	0.715 ± 0.028
SLPRPYPQKVTG	0.621 ± 0.015
SLRLHCSRQRRP	0.649 ± 0.048
SLRLPPPTDTDS	0.681 ± 0.03
SLRQEFDAIFVG	0.604 ± 0.039
SLRSGFVSHFSP	0.689 ± 0.11
SLRSIAPLGSRC	0.832 ± 0.19
SLSAQTISDLSM	0.68 ± 0.049

Sequence	protein stability index
SLSDKRATKGED	0.65 ± 0.018
SLSHPSPPRTLP	0.697 ± 0.007
SLSIWSTSPPAA	0.691 ± 0.0086
SLSLRPPPYPPP	0.578 ± 0.0096
SLSPLPSPPPPP	0.7 ± 0.0087
SLSPPPPAPRAP	0.663 ± 0.02
SLSPTPVAPPLN	0.678 ± 0.009
SLSRPASPPPHH	0.674 ± 0.12
SLTLPAPPLSPC	0.712 ± 0.11
SLTYTSVAKAEV	0.6149 ± 0.0034
SLVVPVSAAQYV	0.653 ± 0.028
SLVWVGGRRWPI	0.73 ± 0.023
SMARVWLVWRWK	0.673 ± 0.035
SMFLGLCGSIYG	0.699 ± 0.056
SMMMIISQRKTR	0.787 ± 0.1
SMPKMGISGVIY	0.617 ± 0.051
SNDTRKNKKRRT	0.797 ± 0.084
SNGYMFRRDRYV	0.686 ± 0.028
SNLYNNQEQDHT	0.723 ± 0.058
SNPSTNPCWKKK	0.643 ± 0.041
SNRALHATPCPR	0.9 ± 0.038
SNRCGRGMRVFA	0.658 ± 0.065
SNVHSYPEIRPG	0.681 ± 0.01
SPAPLALSLRPP	0.668 ± 0.023
SPAPPVPLHPPH	0.714 ± 0.089
SPAPRAPRGICL	0.706 ± 0.017

Sequence	protein stability index
SPCPPPPPSPPS	0.6637 ± 0.0013
SPETSSILLLSF	0.612 ± 0.0035
SPGLQPVACPSF	0.639 ± 0.019
SPGRPGLGGGAW	0.776 ± 0.26
SPGRPSSPPRPR	0.744 ± 0.029
SPGVFQQRHHTY	0.665 ± 0.087
SPHSRAPPRFPP	0.726 ± 0.14
SPILRFPPPCFL	0.67 ± 0.019
SPKGHGEGGGSK	0.6779 ± 0.00078
SPKPPPHPPPPA	0.535 ± 0.0095
SPLASVLPHAAL	0.707 ± 0.049
SPLFLPPPVPPP	0.599 ± 0.039
SPLFPPIPSSLS	0.7278 ± 0.00076
SPLGAADTRQEP	0.687 ± 0.025
SPLLRSRPPPPI	0.749 ± 0.016
SPLPPHPPLPLL	0.6395 ± 0.002
SPLPPPSPRPSL	0.681 ± 0.039
SPLPPRSPPRPA	0.699 ± 0.01
SPLSPLPPALSL	0.695 ± 0.046
SPLSPPPPRLSA	0.723 ± 0.061
SPPCPPPLAPPP	0.758 ± 0.044
SPPFPRPCPFTP	0.644 ± 0.086
SPPHPPPLLLPP	0.655 ± 0.066
SPPHSPPWPLSL	0.691 ± 0.052
SPPLGFAPPSRS	0.853 ± 0.046
SPPLHTFSLPFY	0.669 ± 0.021

Sequence	protein stability index
SPPLLPGVLSES	0.645 ± 0.055
SPPLPKFPPAIP	0.689 ± 0.021
SPPLRPLSDLTP	0.692 ± 0.085
SPPPAPPPISPS	0.708 ± 0.15
SPPPFFSPSLPP	0.65 ± 0.09
SPPPFPPSPSPP	0.715 ± 0.039
SPPPGLSVILLH	0.6 ± 0.054
SPPPHPVHPVPL	0.611 ± 0.019
SPPPISIYPPFR	0.668 ± 0.024
SPPPLPLPPPAP	0.695 ± 0.013
SPPPNPRRPVPL	0.6916 ± 0.0023
SPPPPLPPPLPP	0.52453 ± 0.00047
SPPPPPPPPFPL	0.672 ± 0.033
SPPPPRLPSHPS	0.613 ± 0.14
SPPPPSCRHSPL	0.741 ± 0.011
SPPPSPPTVLPI	0.683 ± 0.022
SPPPSSPPPFPR	0.639 ± 0.026
SPPPTDPPQPPL	0.7035 ± 0.0018
SPPRPPAPPLLP	0.676 ± 0.011
SPPRPPPSPTPL	0.771 ± 0.033
